The source of these data is PMC6099927.

pKd: −log10 of the molar value.

The data set has as its target Plasmodium falciparum lactate dehydrogenase (PfLDH) (Plasmodium falciparum) (UniProt Q27743). Description: APTEC plate capture assay. The conditions noted are these: 2x PBS binding buffer (recombinant PfLDH), 1 h, streptavidin plate coated with DNA, PBST (0.1% Tween-20) washes, absorbance 570 nm; blood: 1:1 with PBS 0.5% ….

Chain of Plasmodium falciparum lactate dehydrogenase (PfLDH) (Plasmodium falciparum) (Q27743 whole entry): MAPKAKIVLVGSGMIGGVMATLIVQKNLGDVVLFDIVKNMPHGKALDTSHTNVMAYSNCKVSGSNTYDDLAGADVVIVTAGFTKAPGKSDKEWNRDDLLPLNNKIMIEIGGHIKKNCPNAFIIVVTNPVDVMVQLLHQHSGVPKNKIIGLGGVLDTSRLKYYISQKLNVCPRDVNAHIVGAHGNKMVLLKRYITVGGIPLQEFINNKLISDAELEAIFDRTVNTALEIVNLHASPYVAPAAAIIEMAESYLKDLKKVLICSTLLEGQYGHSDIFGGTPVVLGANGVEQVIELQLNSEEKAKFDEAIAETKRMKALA

On to “GCAACAGAGCCCTATTCTGTCTCAGTCCACCGGGTTAGGAAACGCGAGTCAGT / CTGGGCGGTAGAACCATAGTGACCCAGCCGTCTACTTCCCTAACGCCTGCGTGAATAGGGCTCTGTTGC / CTGGGCGGTAGAACCATAGTGACCCAGCCGTCTACTTGATCTCAACTCAGTTACCCGGTGGACTGAGAC / CTGGGCGGTAGAACCATAGTGACCCAGCCGTCTACTTTCATCTGGGGCCTTTACTGACTCGCGTTTCCT / TAAGGCCCCAGATGATAAACCCAGGCCGGCCCT / TCGCTCGACAGAGATACTATTAGTACCAGGCCCGATAGGGCCGGCCTGGGTTT / TCGCAGGCGTTAGGGTTCGGGCCTGGTACTAAT / TACTGAGTTGAGATCTGTATCTCTGTCGAGCGA [prism with three aptamers]”, for which the pKd – broadly, the Kd on a negative log10 scale, so that one unit is a factor of ten – was 8.86.
